Among the data in publication PMC6007307 are stoichiometry N and K half values, retold here.

Data set [1] has as its target IFIT2 (recombinant) (human) (UniProt P09913). Briefly: SEC-MALS; equal amounts of IFIT2 and IFIT3 mixed and incubated at 4°C for 1 h, SEC buffer.
Data set [2] has the same target. Put plainly: SEC-MALS; each protein alone at varying concentrations; Superdex 200 Increase 10/300, room temperature, 20 mM Tris pH 7.5, 150 mM KCl, 1 mM DTT. Background: SEC sorts molecules by how far they enter the pores of the column.
Data set [3] deals with IFIT1;IFIT2;IFIT3 (human;human;human). Put plainly: primer extension inhibition (toeprinting). The following applies: 5' cap0 (m7GpppN, no 2'-O-methylation; ScriptCap); Toeprinting at equilibrium, [IFIT1] >= 10x [mRNA]; binding buffer, salt, pH and temperature not in the material (complexes assembled in 20 mM Tris pH 7.5 …).
Data set [4] concerns IFIT1;IFIT3 (human;human). Briefly: primer extension inhibition (toeprinting). The following applies: 5' cap0 (m7GpppN, no 2'-O-methylation; ScriptCap); Toeprinting at equilibrium, [IFIT1] >= 10x [mRNA]; binding buffer, salt, pH and temperature not in the material (complexes assembled in 20 mM Tris pH 7.5 …).
The next data set has as its system IFIT1 (human). Briefly: primer extension inhibition (toeprinting). The following applies: 5' cap0 (m7GpppN, no 2'-O-methylation; ScriptCap); Toeprinting at equilibrium, [IFIT1] >= 10x [mRNA]; binding buffer, salt, pH and temperature not in the material (complexes assembled in 20 mM Tris pH 7.5 …).

Where “and” joins values, the source holds several entries; their conditions need not be identical. Identical values can stand only once.

IFIT2 (recombinant), sequence (P09913 whole entry): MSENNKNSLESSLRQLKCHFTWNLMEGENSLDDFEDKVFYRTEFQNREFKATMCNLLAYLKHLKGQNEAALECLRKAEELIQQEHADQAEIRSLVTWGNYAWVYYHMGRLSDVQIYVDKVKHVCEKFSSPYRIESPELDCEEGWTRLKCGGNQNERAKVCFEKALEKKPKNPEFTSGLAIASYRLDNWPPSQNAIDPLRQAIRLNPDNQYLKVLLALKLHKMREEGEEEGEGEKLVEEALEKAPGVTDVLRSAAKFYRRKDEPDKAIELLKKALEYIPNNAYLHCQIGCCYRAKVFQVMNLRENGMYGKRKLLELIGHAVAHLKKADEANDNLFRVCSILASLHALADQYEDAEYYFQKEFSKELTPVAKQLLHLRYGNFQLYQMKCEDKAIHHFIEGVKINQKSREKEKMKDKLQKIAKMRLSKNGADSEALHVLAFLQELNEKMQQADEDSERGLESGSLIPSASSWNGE

As for “IFIT2 (recombinant) (from UniProt P09913 1-472) (natural protein)”, the stoichiometry N was 2 in data set [1]; 2 and 4 in data set [2].

Regarding cap0-β-globin Fluc mRNA, the figures for the K half (in data set [3]; in data set [4]; with IFIT1 (human)) were 19 nM, 19 nM and 40 nM, respectively.

As a reminder, the stoichiometry N is the number of molecules, sites or subunits per partner or assembly.
